In patent US20210324076A1 (AMPHIVENA THERAPEUTICS, published 2021):

These binders were tested against human CD33 (human, UniProt P20138 18-364) (assay: cell-based or functional assay).
Sequence of human CD33 (P20138 18-364): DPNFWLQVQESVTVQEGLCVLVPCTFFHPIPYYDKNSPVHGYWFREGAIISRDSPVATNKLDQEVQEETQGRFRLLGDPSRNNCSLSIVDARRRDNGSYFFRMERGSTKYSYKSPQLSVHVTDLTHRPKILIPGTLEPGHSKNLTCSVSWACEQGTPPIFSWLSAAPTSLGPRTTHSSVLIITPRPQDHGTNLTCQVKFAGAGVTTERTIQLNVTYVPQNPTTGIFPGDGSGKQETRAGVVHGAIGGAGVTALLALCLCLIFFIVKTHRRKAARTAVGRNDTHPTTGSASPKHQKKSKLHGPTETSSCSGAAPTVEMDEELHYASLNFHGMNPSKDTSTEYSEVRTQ

IC50 lysis of KG-1 cells with human T cells, E:T 5:1, 24 h	Binder
~5 pM	CD33/CD3 2×2 T-cell engager 19 (bispecific antibody) DIQMTQSPSSLSASVGDRVTITCRSSTGAVTTSNYANWVQQKPGKAPKALIGGTNKRAPGVPSRFSGSLIGDKATLTISSLQPEDFATYYCALWYSNLWVFGQGTKVEIKGGSGGSQVQLVQSGAEVKKPGASVKVSCKASGYTFTSYYMHWVRQAPGQGLEWMGIINPSGGSTSYAQKFQGRVTMTRDTSTSTVYMELSSLRSEDTAVYYCARDVVPAAIDYYGMDVWGQGTTVTVSSGGSGQSVLTQPPSASGTPGQRVTISCSGSSSNIGSNTVNWYQQLPGTAPKLLIYSDNQRPSGVPDRFSGSKSGSSASLAISGLQSDDEADYYCATWDDSLNGAVFGGGTKLTVLGGSGGSEVQLVESGGGLVQPGGSLRLSCAASGFTFSTYAMNWVRQAPGKGLEWVGRIRSKYNNYATYYADSVKDRFTISRDDSKNSLYLQMNSLKTEDTAVYYCARHGNFGNSYVSYFAYWGQGTLVTVSSAAAGSHHHHHH

The binders below were run against human CD3 (human, UniProt P07766 23-207; P09693 23-182; P04234 22-171; P20963 22-164) (assay: cell-based or functional assay).
Sequence of human CD3 (P07766 23-207, chain 1 of 4): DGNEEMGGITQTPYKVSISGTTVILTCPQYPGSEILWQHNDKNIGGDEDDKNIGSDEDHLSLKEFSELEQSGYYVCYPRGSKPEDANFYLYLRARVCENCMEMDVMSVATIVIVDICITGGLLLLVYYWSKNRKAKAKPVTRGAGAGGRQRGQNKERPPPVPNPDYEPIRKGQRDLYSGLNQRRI
Sequence of human CD3 (P09693 23-182, chain 2 of 4): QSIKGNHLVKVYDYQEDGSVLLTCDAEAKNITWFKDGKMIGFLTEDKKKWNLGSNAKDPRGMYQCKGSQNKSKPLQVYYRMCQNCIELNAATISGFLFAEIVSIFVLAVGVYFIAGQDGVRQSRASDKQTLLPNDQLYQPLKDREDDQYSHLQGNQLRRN
Sequence of human CD3 (P04234 22-171, chain 3 of 4): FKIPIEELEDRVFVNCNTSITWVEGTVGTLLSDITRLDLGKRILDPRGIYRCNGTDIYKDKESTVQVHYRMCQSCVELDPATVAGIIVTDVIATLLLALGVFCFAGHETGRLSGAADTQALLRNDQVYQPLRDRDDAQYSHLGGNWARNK
Sequence of human CD3 (P20963 22-164, chain 4 of 4): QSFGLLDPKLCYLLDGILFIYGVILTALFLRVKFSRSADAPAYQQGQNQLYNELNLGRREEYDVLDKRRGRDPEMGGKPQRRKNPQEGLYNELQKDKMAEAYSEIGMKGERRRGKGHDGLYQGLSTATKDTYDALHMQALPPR

Binder	CD25 Induction EC50 (PBMC, 24 h)	CD69 Induction EC50 (PBMC, 24 h)
CD33/CD3 2×2 T-cell engager 05 (bispecific antibody) DIQMTQSPSSLSASVGDRVTITCRSSTGAVTTSNYANWVQQKPGKAPKGLIGGTNKRAPGVPARFSGSGSGTDFTLTISSLQPEDFATYYCALWYSNLWVFGQGTKVEIKGGSGGSQVQLVQSGAEVKKPGASVKVSCKASGYTFTSYDINWVRQAPGQGLEWMGWMNPNSGNTGFAQKFQGRVTMTRDTSTSTVYMELSSLRSEDTAVYYCARDRANTDYSFGMDVWGQGTLVTVSSGGSGGQSVLTQPPSASGTPGQRVTISCSGSRSNIGSNTVNWYQQLPGTAPKLLIYGNNQRPSGVPDRFSGSKSGTSASLAISGLQSEDEADYYCATWDDSLIGWVFGGGTKLTVLGGSGGSEVQLVESGGGLVQPGGSLRLSCAASGFTFSTYAMNWVRQAPGKGLEWVGRIRSKYNNYATYYADSVKDRFTISRDDSKNSLYLQMNSLKTEDTAVYYCARHGNFGNSYVSWFAYWGQGTLVTVSSAAAGSHHHHHH	116 pM	74 pM
CD33/CD3 2×2 T-cell engager 21 (bispecific antibody) DIQMTQSPSSLSASVGDRVTITCRSSTGAVTTSNYANWVQQKPGKAPKALIGGTNKRAPGVPSRFSGSLIGDKATLTISSLQPEDFATYYCALWYSNLWVFGQGTKVEIKGGSGGSQVQLVQSGAEVKKPGSSVKVSCKASGGTFSSYAISWVRQAPGQGLEWMGGIYPIFGSANYAQKFQGRVTITADESTSTAYMELSSLRSEDTAVYYCAREYYYDSSEWAFDIWGQGTLVTVSSGGSGQSVLTQPPSASGTPGQRVTISCSGSSSNIGSNIVNWYQQLPGTAPKLLIYSNNQRPSGVPDRFSGSKSGTSASLAISGLQSEDEADYYCAAWDDSLKGYVFGGGTKLTVLGGSGGSEVQLVESGGGLVQPGGSLRLSCAASGFTFSTYAMNWVRQAPGKGLEWVGRIRSKYNNYATYYADSVKDRFTISRDDSKNSLYLQMNSLKTEDTAVYYCARHGNFGNSYVSYFAYWGQGTLVTVSSAAAGSHHHHHH	–	225 pM
CD33/CD3 2×2 T-cell engager 24 (bispecific antibody) DIQMTQSPSSLSASVGDRVTITCRSSTGAVTTSNYANWVQQKPGKAPKALIGGTNKRAPGVPSRFSGSLIGDKATLTISSLQPEDFATYYCALWYSNLWVFGQGTKVEIKGGSGGSQVQLVQSGAEVKKPGSSVKVSCKASGGTFDSYAISWVRQAPGQGLEWMGGIIPIFGSAHYSQKFQGRVTITADESTSTAYMELSSLRSEDTAVYYCAREYYYDSSEWAFDIWGQGTLVTVSSGGSGQSVLTQPPSASGTPGQRVTISCSGSSSNIGDNVVNWYQQLPGTAPKLLIYSTNKRPSGVPDRFSGSKSGSSASLAISGLQSEDEADYYCAAWDDSLSAYVFGGGTKLTVLGGSGGSEVQLVESGGGLVQPGGSLRLSCAASGFTFSTYAMNWVRQAPGKGLEWVGRIRSKYNNYATYYADSVKDRFTISRDDSKNSLYLQMNSLKTEDTAVYYCARHGNFGNSYVSYFAYWGQGTLVTVSSAAAGSHHHHHH	–	57 pM
CD33/CD3 2×2 T-cell engager 17 (bispecific antibody) DIQMTQSPSSLSASVGDRVTITCRSSTGAVTTSNYANWVQQKPGKAPKALIGGTNKRAPGVPSRFSGSLIGDKATLTISSLQPEDFATYYCALWYSNLWVFGQGTKVEIKGGSGGSQVQLVQSGAEVKKPGESLKISCKGSGYSFTSYWIGWVRQMPGKGLEWMGIIYPGDSDTRYSPSFQGQVTISADKSISTAYLQWSSLKASDTAMYYCARHKRGSDAFDIWGQGTTVTVSSGGSGQSVLTQPPSVSGAPGQRVTISCTGSSSNIGAGYDVHWYQQLPGTAPKLLIYGNSNRPSGVPDRFSGSKSGTSASLAITGLQAEDEADYYCQSYDSSLSDVVFGGGTKLTVLGGSGGSEVQLVESGGGLVQPGGSLRLSCAASGFTFSTYAMNWVRQAPGKGLEWVGRIRSKYNNYATYYADSVKDRFTISRDDSKNSLYLQMNSLKTEDTAVYYCARHGNFGNSYVSYFAYWGQGTLVTVSSAAAGSHHHHHH	30 pM	114 pM

Second part, the binder after the results:

CD25 Induction EC50 (PBMC, 24 h)	CD69 Induction EC50 (PBMC, 24 h)	Binder
41 pM	17 pM	CD33/CD3 2×2 T-cell engager 23 (bispecific antibody) DIQMTQSPSSLSASVGDRVTITCRSSTGAVTTSNYANWVQQKPGKAPKGLIGGTNKRAPGVPSRFSGSLIGTDFTLTISSLQPEDFATYYCALWYSNLWVFGQGTKVEIKGGSGGSQVQLVQSGAEVKKPGSSVKVSCKASGGTFSSYGISWVRQAPGQGLEWMGGIIPIFGSAHYAQKFQGRVTITADESTSTAYMELSSLRSEDTAVYYCAREYYYDSSEWAFDIWGQGTLVTVSSGGSGQSVLTQPPSASGTPGQRVTISCSGSSSNIGSNTVKWYQQLPGTAPKLLIYSNNQRSSGVPDRFSGSKSGSSASLAISGLQSEDEADYYCAAWDDSLNGYVFGGGTKLTVLGGSGGSEVQLVESGGGLVQPGGSLRLSCAASGFTFSTYAMNWVRQAPGKGLEWVGRIRSKYNNYATYYADSVKDRFTISRDDSKNSLYLQMNSLKTEDTAVYYCARHGNFGNSYVSWFAYWGQGTLVTVSS
39 pM	21 pM	CD33/CD3 2×2 T-cell engager 06 (bispecific antibody) DIQMTQSPSSLSASVGDRVTITCRSSTGAVTTSNYANWVQQKPGKAPKGLIGGTNKRAPGVPARFSGSGSGTDFTLTISSLQPEDFATYYCALWYSNLWVFGQGTKVEIKGGSGGSQVQLVQSGAEVKKPGASVKVSCKASGYTFTSYDINWVRQAPGQGLEWMGWMNPNSGNTGFAQKFQGRVTMTRDTSTSTVYMELSSLRSEDTAVYYCARDRANTDYSLGMDVWGQGTLVTVSSGGSGGQSVLTQPPSASGTPGQRVTISCSGSRSNIGSNTVNWYQQLPGTAPKLLIYGNNQRPSGVPDRFSGSKSGTSASLAISGLQSEDEADYYCATWDDSLIGWVFGGGTKLTVLGGSGGSEVQLVESGGGLVQPGGSLRLSCAASGFTFSTYAMNWVRQAPGKGLEWVGRIRSKYNNYATYYADSVKDRFTISRDDSKNSLYLQMNSLKTEDTAVYYCARHGNFGNSYVSWFAYWGQGTLVTVSSAAAGSHHHHHH
10 pM	4 pM	CD33/CD3 2×2 T-cell engager 22 (bispecific antibody) DIQMTQSPSSLSASVGDRVTITCRSSTGAVTTSNYANWVQQKPGKAPKALIGGTNKRAPGVPSRFSGSLIGDKATLTISSLQPEDFATYYCALWYSNLWVFGQGTKVEIKGGSGGSQVQLVQSGAEVKKPGSSVKVSCKASGGTFSSYGISWVRQAPGQGLEWMGGIIPIFGSAHYAQKFQGRVTITADESTSTAYMELSSLRSEDTAVYYCAREYYYDSSEWAFDIWGQGTLVTVSSGGSGQSVLTQPPSASGTPGQRVTISCSGSSSNIGSNTVKWYQQLPGTAPKLLIYSNNQRSSGVPDRFSGSKSGSSASLAISGLQSEDEADYYCAAWDDSLNGYVFGGGTKLTVLGGSGGSEVQLVESGGGLVQPGGSLRLSCAASGFTFSTYAMNWVRQAPGKGLEWVGRIRSKYNNYATYYADSVKDRFTISRDDSKNSLYLQMNSLKTEDTAVYYCARHGNFGNSYVSYFAYWGQGTLVTVSSAAAGSHHHHHH
9 pM	5 pM	CD33/CD3 2×2 T-cell engager 19 (bispecific antibody) DIQMTQSPSSLSASVGDRVTITCRSSTGAVTTSNYANWVQQKPGKAPKALIGGTNKRAPGVPSRFSGSLIGDKATLTISSLQPEDFATYYCALWYSNLWVFGQGTKVEIKGGSGGSQVQLVQSGAEVKKPGASVKVSCKASGYTFTSYYMHWVRQAPGQGLEWMGIINPSGGSTSYAQKFQGRVTMTRDTSTSTVYMELSSLRSEDTAVYYCARDVVPAAIDYYGMDVWGQGTTVTVSSGGSGQSVLTQPPSASGTPGQRVTISCSGSSSNIGSNTVNWYQQLPGTAPKLLIYSDNQRPSGVPDRFSGSKSGSSASLAISGLQSDDEADYYCATWDDSLNGAVFGGGTKLTVLGGSGGSEVQLVESGGGLVQPGGSLRLSCAASGFTFSTYAMNWVRQAPGKGLEWVGRIRSKYNNYATYYADSVKDRFTISRDDSKNSLYLQMNSLKTEDTAVYYCARHGNFGNSYVSYFAYWGQGTLVTVSSAAAGSHHHHHH
